Assay: soluble on expression in E. coli; label from the status in PepcDB or PDB records

Soluble on expression in E. coli, not soluble:
MGSDKIHHHHHHMPSFKTYPLESIGYDEALRKQFRLVDEITRHFKGSEFLSRGDLGVVPGLNRPRYTKRVEEILAAYFHAEAAMLVRGAGTAAIRMALHSYLTAGQTLLVHDAPIYPTTQTSIEMMSLRTIRADFNDLNHQQLPESPDGILVQYTRQKPDDSYDMAKVLAFFKQRYPSVPIVTDDNYAVMKVHKIGVELGASLSCFSTFKLLGPEGIGCIVGDKSAIQKLRSANYSGGSQVQGHEAIDVLRGLTYAPVALAAQANVVTELVERLNGNEIPGISEAYVANAQSKVLLVEFNQPIAEKVLKYTNDLGAAPNPVGAESKYEIAPMFYRVSGTFKKFDPNLLKTTIRINPYRCGADTIMRILAESVEKVMA
MGSDKIHHHHHHMPSIENMIAWMQARKGKVTYSMTSRMGPNSYDCSSSIFFAMIAGGFLSAGSMGNTETLFGMSGTKLKEISRGEVQRGDVFISGTPGGSAGSDGHTGIFLSNGSFIHCSYTHNGIAVDTNDAYMSTRLPHHFYRIVGSGSGNTDNKPQMVTLNVDGQFGNATAKRLQEYFDTAGKDGVISHQYKQTFNQNIYAAQFDSSLTGSNVVKALQRFLGIGQDGLFGQGTIKALQKHLGTTQDGTISPVSDSVRELQRRLNANKL
MGSDKIHHHHHHMPSLREQQHPLIRQLADCIEAAWHQHLDLSPYHLPDELGYVEGRLEGEKLTIENRCYQTPQFRKMHLELANIGNMLDILHCVMFPRPQYNLPMFGCDLVGGRGQISAAIADLSPIQLERTLPESYTTALAQLPVLNFSQPRELPEWGNIFSDFCIFVRPGSPEEEAMFLSRVREFLDIHCMQAIASHPVSVEQVTQNLAGQHNYCTKQQQNDKTRRVLEKAFGPVWAENYMTTVLFDLPT
MGSDKIHHHHHHMPTIHFVDGEKGGVGKSLFARTMIQYCLDKRIPFVPVETDRSNPDVAGVYKEICKYAVFSENERQANKADRIFEWAIERPVIVNLAAQSHRAVQGWIESNQLLELGSSQGVMFCKWFISTGGYDSINLFTQSVNTYGEKIPHILVRNLGLCDDWEHLESDSNFQNIVNKYQIKVIDFPKLAYRERNIIDQNRLTFAEAREYKEFGIIGKQRVVNFLKLAYGAFEKVGIWYEKVE
MGSDKIHHHHHHMPWLRFCDRDRSVHMLVAMLDLTREKAEQVMRRGPWLASMTEPFRTELLRHAHLQKFAPDQVVYRHGDAVGGMYGLVAGSLTINSAPPDAASRLIHLGMPGAWTGEGPFLTGQPRRVELRALGGAWMMHVPLDALEQMMARDPGVSRAIAMNTVFTVDVLLRIIHDLQKRAVGRRIASVLQRASWVGDMPIPLSQTDLGIMANASRQQVNTAMQRFARAGWVSYTYRSVTVSNSQALRRFSEGDGSEW
MGSDKIHHHHHHMQALQTFNFEELPVRTLEVDGEPYFIGKDVADILGYANGRDALSKHVDEDDKKVLTSRNTTLENLPNRGLTAVNESGLYSLIFSSKLESAKRFKRWVTSDVLPAIRKYGIYATDNVIEQTLKDPDYIITVLTEYKKEKEQNLLLQQEIGELKPKADYVDEILKSTGTLATTQIAADYGISAQKLNKLLHEARLQRKVNKQWVLYSEHMGKSYTDSDTITIVRSDGREDTVLQTRWTQKGRLKIHEIMTEFGYEANLGGA
MGSDKIHHHHHHMQDKNFDKLAQKFAKNIYGTPKGEIRAAVLWRDLAPALAQFGDKKLRILDAGGGFGYFSQKLARLGHEVVLCDISAEMLAQAKEQIDASDTPLAIRLVHAPIQALSITEHGMFDLILCHAVVEWLADAKTTMEGLLTMLKPNGLFSLMFYNKEAMRFHALVSGNFDYVAADLKVKKKVRLTPTHPLYIHEVKLWFAQWQMALLKESGVRVIHDYLKKQQAADFDYQKLLSMELEYSQREPYISLGRYVHFLGQSTATHSE
MGSDKIHHHHHHMQEVATEARIGPNSIIQTVAAARAQYGEEAVADWLRRTGRGHLLEAMPDHMLPESEFGDLIADLRFWLGVSAAADVLAQSGDLTAQYVATHRVPVPIRWLLPRLPVGLALRIFLPAIARHAWTFAGSGRFGYTLQPAWRLTLADSVEARGVRATEPVCAYYRAAFEGLLRRVVCDRLRVHEVACRAMGTGRCEFAVELSR
MGSDKIHHHHHHMQFSPEQDNALKAVSAWLKEGRSPLFRLFGYAGTGKTTLARYFAETVDGSVQFTAFTGKAAQVLRSKGASNACTIHSLIYCPRGEEEVSDEVTGKKSIAPTFALNRRSAAAQAKLIIVDECSMVDEQLARDLMSFRTPILVLGDPGQLPPISGGGFFSNGVPDFLLSEIHRQARDNPIVRLAMDVREGRDIPYGNYGAARVVTRKEVHQQLVLDADQLLVGINRTRYLYNKRLRVLKGFTAAYPQAGDKLVCLRNDPAKGLLNGSLWKVMTSQKETVKPGVNLLVKPEESERGVVKIKLLKALFENPDSDISWQLKKRYDDFDYGYALTVHKAQGSQWNNVVLFDESFAFRDMSARWLYTGITRAAERLTIVR
MGSDKIHHHHHHMQGKKFISPGAWFSMNYPSDWNEFEDGEGSFLFYNPDVWTGNFRISAFKGNASYGKDAIRQELKENDSASLVKIGTWDCAYSKEMFQEEGTYYTSHLWITGTGNIAFECSFTVPKGGSAKEAEEVIATLEARKEGEKYPAELIPVRLSEIYQINEGYEWVVSTVKQELKKDFQGVEEDLEKIQQVIDSGKISPKKKDEWLAIGITVCAILTNEVEGMEWKTLIDGNREVPVLEYQGRTIDPMKIAWSKVKAGQPCNIAEAYQSAIDHH
MGSDKIHHHHHHMQGSRFAFGPFVLDPGAGTLLRNDDPVAVGYRGLKLLAALVGRPGEILEKAELMDAAWPGTAVEEGNLTVQIAQLRKLLGPPADGGEWISTVPRVGYRFTGAIEQLDRAKRKPLPLPDKPSIAVLPFVNLSNDPEQEAFADGLTEDLITDLSRAPGLFVIARNSTFAYKGKAMDVRAIAEELGVRYLLEGSARRAAGRVRINAQLVDAKSGEHLWAERFDRGLDDIFAVQDEATAKIVEALLGRLRAPPPRNRPTNLEAYDLCVRARKLIEESPQTAREAHLLLTRAVSLDPEYAEAHRWLAMNHWMGWVHWGEPVDPNRRIALELARKAVAIDPNDAGCRWVLGNLLAYEHSFEESEAEFAKAFELDPNEADAWATLSDIAVLAGRVEEGLEHIRKAFRLNPYPASWYYLTLGEAQYAARDYEAAVETLRREETYRTSSRRFLAASLAQLGRLDEARAEVEMFLIGNPHFTTSYWVWTEPFRDDAMRDHFVDGFRKAGLPD
MGSDKIHHHHHHMQILFFMKIIRDPIHGYIEVEDFVLQIISTEIFQRLRHITQTGLAYLVYPGMRHTRFEHSLGVMHLAKELTRYIKINSEQYTDLDFINEEYLKLVGLSGLLHDIGHLPFSHTFENALSLAKEVYGIDVEYYGKKTHVIFGNRVIDYYLGNYLDKLSKNYDVVNFVQRVISSTPRTKEESLASLIISSPLDADRGDYLLRDSYFAGVGYGNFDIERIKRSLIYVNGKLAVLKKAIPVVEQFLLARMYMYETIYFHSVVGLYNAVLSHAVVKLIQKNLIPNVAPENYLKLNDVVIMSKLNEAGREFFDAIVYRKGFKRYKKDLTGNCYETLEKKRKEINEIMRENNGLILYHDFYDVPYSEDEIFVYDDDELKPLSTESKIVSSLTIIKKGIVGYHESAEDKMKKIYEILQECPL
MGSDKIHHHHHHMQINRLTLTNFRGLTNSVLDFAPGFNLVVGVNGVGKTAVLEALRILLAKALPSFAEVRGFPGIGLTKDDITIDRKQAAIEVSFTHQAHTFSLLLSDQLEVVRDAVDEQKGLKDIRDIDELASLRHGQRPERGDPRLEGTLRGQTSERPRASGQLSPTPDRALKKSKPQPIVLYFSVRRAVPSPGTPKTKAGTPYQGIFEIERGLELGKIIEWWNSKATVAREAPDSRSAKQLTTTCNALERLLPHLSDWKVEDGNFTVCKVADVGVLNDESGEFEVKQETRRLPVQFLSDGERSLIAIGIDIAYRLASLNEDSETPLDDGEGIVLIDELDLHLHPQWQRTVVELLRTAFPKLQFICTTHSLFLIQSQRMGNLIQLDRIGDEEESAEQYHNQSIEDIAEEVQGIDLPQRSKRHVELMLAASEYYRALKKAEDDPNIPIEELKEKYEALSLRYSADPLVAAALDFRWETFVFKRNHATRR
MGSDKIHHHHHHMQLDKYTAKKIVKRAMKIIHHSVNVMDHDGVIIASGNSTRLNQRHTGAVLALRENRVVEIDQALAQKWNFEAQPGINLPIHYLGKNIGVVGISGEPTQVKQYAELVKMTAELIVEQQALLEQESWHRRYKEEFILQLLHCNLNWKEMEQQAKFFSFDLNKSRVVVLIKLLNPALDNLQNLINYLEQSEFAQDVAILSLDQVVVLKTWQNSTVLSAQMKTLLPADYSKQDYKIAVGACLNLPLFEQLPLSFQSAQSTLSYGLKHHPRKGIYVFDEHRLPVLLAGLSHSWQGNELIKPLSPLFSEENAILYKTLQQYFLSNCDLYLTAEKLFVHPNTLRYRLNKIEQITGLFFNKIDDKLTLYLGTLLEH
MGSDKIHHHHHHMQLKNVQRSYALTLGEKTGSTINVGVFAQKRAKKCTQAPLSIILELSRNKERIGAACTMNFTMDLPGLKGVKVTKMEEREDFIALHVEMPRTPHRCPSCGERTERIHDYRIQKVQHLKLFERWVYLFYRKRRYACRCGKRFAEKACFVERYQRQTVEWNQAFRLRLIQGKNFTDTANQFQTSVTTAMRRFDQLAAPLVKKVDHLPPRIAIDDYKGDTNAGKYQVIIADADTRKPLDILPDRKADTLKRYLQEKGHHVKTVVMDLSYTFKSAVQKALGHPLIIGDPFHFCRYIYWALEGVRRRVQKAFHPYHRKRCKRIKHLFQKEREGLDDKQKKKVERYLELSPDLREAYELKEHFRQWYQEAKMQGREGRMSEVKQGLYAFYRRVEASPLKEFHRAIQTLKNWQTEILNSFAFGLNNGFIEGLNNQTKVIKRNAFGFRRYDRLRNRILLHHQFKHQTFGVG
MGSDKIHHHHHHMQLKPLLRQLATTFEVTVDPTFTHNPEVTHVQFVDPTEALASHRLYLSPDSSQLVQLTYSWHGHRQSVGLVNLGTGLTTIIAAQNQLLKLLMTLGQCLHHDVQIQAAINQLAIQAITADFDTTLAQAVRLLENPLAIIDLNGEILTRSHTTQLNGTSIHAAVETNRVGRWLLDHGFAPDTPDFLTQVYVAEDQLSAGPMLITPLANGTEPLGYLVMPALNKPLNDRQALLINSIGQVIAGSLVKNQIMPTAESQRDRLLNLLLTEHQGGTFADQFAEQHVQLPTAMVLIRCEPLADQAPMILQQRLQYLMMPRFKQVLVSTYQQQCVALIPISLVAYNQNQFKLTLQQITKQADCRLIVSQHYVNPEDTFAAYTVCERTAQLKTGRGRVIFCEDQFYNLALARVNHLEILPFFINPALRLLLAYDQQNHTELVPTLDVYLRATCNLTRTAKQLYVHPNTLRNRLHHITTLTGCDLRDAETCFKLAASFKLRQFLTQHQYQYRPDIPIPTQD
MGSDKIHHHHHHMQLPGGVQLTYCTNLHAASSLDEVRANLDRYAVPLKARLSPNAPFGIGLRLSGQESAELLEGQALAAFKAFLDERGLYVFTLNGFPYGPFHGQPVKTQVHAPDWRDAERVAYTQRLAEILAFLLPEGGEGGISTSPLSYRGWVEADSRSAWIQMTGNLVRVVETLIRLRQRWGRFIHLDLEPEPDGLLQCSDDLARFFREHLLGGGARDLAARLGIDVEQARAYLRDHVQVCFDTCHVAVMYEDPAQALQTYEQVGLRIGKVQISSALRLPLPPDPEARLDGARALVPFVEDTYLHQVIGRSRDGKIVQYPDLPPALAHVRDPQVTEWRIHFHIPVFLERAGLFASTQPEIVKTLALLREKGFTRHLEIETYTWDVLPEALKLPLLCSIEREYRWVMDVL

From the DeepSol protein solubility set
